This is an account of results in PMC3391290.

For orientation: Kd means the equilibrium constant for the complex coming apart. Lower therefore signals tighter binding.

Test [1] has as its target TSHR-LHR-6 chimeric receptor. Description: radioligand binding; membrane preparations of TSHR wild type, mutants and constructs, 125I-hTSH with increasing unlabelled hTSH; with MAb 311.87 (134 nM) (Table 5).
Test [2] addresses TSHR-LHR-6 chimeric receptor. Description: radioligand binding; membrane preparations of TSHR wild type, mutants and constructs, 125I-hTSH with increasing unlabelled hTSH; with NMIgG (control) (Table 5).

Sequence of human thyroid stimulating hormone (hTSH) (P01215 25-116): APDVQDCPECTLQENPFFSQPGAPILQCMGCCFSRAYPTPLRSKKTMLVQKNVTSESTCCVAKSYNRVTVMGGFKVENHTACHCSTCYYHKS
Sequence of human thyroid stimulating hormone (hTSH) (P01222 21-132): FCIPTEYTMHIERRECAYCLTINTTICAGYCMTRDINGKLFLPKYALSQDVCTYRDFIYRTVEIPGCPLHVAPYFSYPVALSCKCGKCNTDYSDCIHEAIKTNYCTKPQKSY

Take “human thyroid stimulating hormone (hTSH) (from UniProt P01215 25-116; P01222 21-132) (ligand)”: the Kd with MAb 311.87 in test [1] amounted to 0.39 nM. Besides, the Kd in test [2] was found to be 0.27 nM.
